For series [1], the system named is XPC4 target locus in 293H cells. Put plainly: Meganuclease-induced mutagenesis at XPC4 target locus by deep sequencing, 5-aza-2-deoxycytidine treatment. The series is classed as cell-based, human. The protocol: FIG. 10: Frequencies of mutagenesis events measured by deep sequencing. Cells were pre-treated with 5-aza-2-deoxycytidine at 0.2 μM or 1 μM 48 hours before transfection with XPC4 meganuclease or empty vector. The treatment was maintained 48 hours post-transfection. Two days post-transfection, the genomic DNA was extracted and a PCR with primers surrounding target site was performed. The results were expressed as a percentage of PCR fragments containing a mutation.
The human 293H cells (ATCC) were plated at a density of 1.2×10^6 cells per 10 cm dish in complete medium (DMEM supplemented with 2 mM L-glutamine, penicillin (100 IU/ml), streptomycin (100 μg/ml), amphotericin B (Fongizone: 0.25 μg/ml, Invitrogen-Life Science) and 10% FBS) supplemented with 5-aza-deoxycytidine. The next day, cells were transfected with 3 μg of meganuclease expression vector in the presence of 5-aza-deoxycytidine and Lipofectamine 2000 transfection reagent (Invitrogen) according to the manufacturer's protocol.
Cells were pre-treated with 5-aza-deoxycytidine at 0.2 μM or 1 μM 48 hours before transfection and the treatment was maintained 48 hours post-transfection. As a control, cells not treated with 5-aza-2-deoxycytidine (NT) were used. Extraction of genomic DNA was performed 48 hours after transfection.
After genomic DNA extraction, the XPC4 target locus was amplified with specific primers flanked by specific adaptator needed for HTS sequencing on the 454 sequencing system (454 Life Sciences)
5000 to 10 000 sequences per sample were analyzed.

Series [2] has as its system XPC4 endogenous locus in 293H cells. Put plainly: Gene targeting induced by XPC4 meganuclease at its endogenous locus, PCR on cellular clones. The series is classed as cell-based, human. The settings on record: for targeted events, % of the transfected cells: XPC4 meganuclease + repair matrix, n=2. As for the experimental part: FIG. 11: XPC4 meganuclease efficiency is impaired by DNA methylation in vivo. 293H cells were co-transfected with 3 μg of XPC4 meganuclease expressing vector or empty vector and 2 μg of DNA repair matrix vector in presence or absence of DNA methylation inhibitor (5-aza-2′deoxycytidine). 480 individual cellular clones were analyzed in each condition for the presence of targeted events using specific PCR amplification.
Cell culture as well as general transfection conditions were described in “material and methods” section of part b) above. For this assay, 293H cells were co-transfected with 3 μg of XPC4 meganuclease expressing vector or empty vector and 2 μg of DNA repair matrix. The DNA repair matrix consists of a left and right arms corresponding to isogenic sequences of 1 kb located on both sides of the meganuclease recognition site. These two homology arms are separated by a heterologous fragment of 29 bp (sequence: […], SEQ ID NO: 64). Two days post-transfection, cells were replated in 10 cm dish. Two weeks later, individual clones were picked and subsequently amplified in 96 wells plates for 3 days. 480 individual cellular clones were then analyzed per condition. DNA extraction was performed with the ZR-96 genomic DNA kit (Zymo research) according to the supplier's protocol. The detection of targeted DNA matrix integrations was performed by specific PCR amplification using the primers: XPC4_F4: 5′-[…]-3′ (SEQ ID NO: 41) (located within the 29 bp of heterologous sequence, i.e. SEQ ID NO: 64) and XPC4_R4: 5′-[…]-3′ (located on the genomic sequence outside of the homology) (SEQ ID NO: 42).

In another series the test system is XPC4.1 DNA target. Nature of the series: In vitro single turn over cleavage assay with XPC4.1. The series is classed as biochemical. As for the experimental part:
FIG. 8: In vitro cleavage of unmethylated or methylated XPC4.1 by XPC4. A constant amount of XPC4.1 duplex (50 nM) was incubated with an excess of XPC4 (1.5 μM, final concentration) in the reaction buffer (10 mM Tris-HCl, 150 mM NaCl, pH8) at 37° C. Cleavage reaction was triggered by the addition of MgCl2 and then stopped after different time lengths by the addition of the stop buffer. This was followed by one hour of incubation at 37° C. to digest XPC4 and release free DNA molecules. Cleaved and uncleaved DNA products were separated by PAGE using a TGX Any kD precast gel (Bio-Rad), stained with SYBR Green and then quantified using Quantity One software (Bio-Rad). […]
To investigate the influence of C1234 methylation on the nuclease activity of I-Cre I, in vitro single turn over cleavage assays were performed with either unmethylated or methylated C1234 duplexes (unmethylated C1234 composed of SEQ ID NO: 31+SEQ ID NO: 32, C1234_Me full composed of SEQ ID NO: 35+SEQ ID NO: 38, C1234_Me-6a/-5b composed of SEQ ID NO: 33+SEQ ID NO: 36, C1234_Me-3a/-2b composed of SEQ ID NO: 34+SEQ ID NO: 37, C1234_Me-3a composed of SEQ ID NO: 34+SEQ ID NO: 32, C1234_Me-2b composed of SEQ ID NO: 31+SEQ ID NO: 37, respectively). […] Cleaved and uncleaved DNA products were separated by PAGE using a TGX Any kD precast gel (Bio-Rad), stained with SYBR Green and then quantified using Quantity One software (Bio-Rad). […]

Results on 2 molecules are retold here after patent US20130196320A1, “METHOD FOR IMPROVING CLEAVAGE OF DNA BY ENDONUCLEASE SENSITIVE TO METHYLATION” (CELLECTIS, priority 2010, published 2013).

What is called kcat is the number of substrate molecules converted per active site and unit of time at saturation.

For `Nc1ncn([C@H]2C[C@H](O)[C@@H](CO)O2)c(=O)n1` [5-aza-2′deoxycytidine, reference compound], in series [1] (empty vector, 1 μM of 5-aza-2′deoxycytidine), the “mutagenesis” value was “low or absent”. Further, the “targeted events” value in series [2] (absence of meganuclease, with 5-aza-2′deoxycytidine treatment) is reported as “no targeted events could be detected”.

B1: XPC4: engineered meganuclease (SEQ ID NO: 2) designed to cleave xeroderma pigmentosum group C gene (XPC) (protein)
chain: MANTKYNEEFLLYLAGFVDGDGSIIAQIKPNQSHKFKHALQLTFKVTQKTQRRWFLDKLVDEIGVGYVQDSGSVSNYILSEIKPLHNFLTQLQPFLELKQKQANLALKIIEQLPSAKESPDKFLEVCTWVDQVAALNDSKTRKTTSETVRAVLDSLSEKKKSSPAAGGSDKYNQALSKYNQALSKYNQALSGGGGSNKKFLLYLAGFVDSDGSIIAQIKPNQSHKFKHQLSLAFQVTQKTQRRWFLDKLVDRIGVGYVRDRGSVSDYILSKIKPLHNFLTQLQPFLKLKQKQANLVLKIIEQLPSAKESPDKFLEVCTWVDQVAALNDSKTRKTTSETVRAVLDSLSEKKKSSP
For B1, the kcat in the series with XPC4.1 DNA target (XPC4.1_Me −11a/−10b & +10a/+11b (fully methylated)) was determined as 0.1 ± 0.01 min⁻¹; in the series on XPC4.1 DNA target (unmethylated XPC4.1), 0.078 ± 0.01 min⁻¹. Also, in series [1] (XPC4 meganuclease, absence of 5-aza-2′deoxycytidine), the “PCR fragments carrying a mutation” value is 0.2-0.5%. Moreover, the mutations result in series [1] (XPC4 meganuclease, samples treated with 5-aza-2′deoxycytidine) is listed as “up to 7.6%”. For the same molecule, the “targeted events, % of the transfected cells” value in series [2] (5-aza-2′deoxycytidine (0.2 μM)) is 12.5%±0.26; in series [2] (absence of 5-aza-2′deoxycytidine) it was 1.05%±0.34. Moreover, the “increase of targeted event frequency” value in series [2] (with 5-aza-2′deoxycytidine (0.2 μM) vs without) is recorded as 12 fold.
